These results are taken from a protein production outcome set (Wang et al. 2014).

A short description of this data set: label from the status in PepcDB records.
In the case of “YRALYPFEARNHDEMSFNSGDIIQVDEKTVGEPGWLYGSFQGNFGWFPCNYVEKMPSSENEKAVSPKKALLPPTVSLSAT”, the protein production entry was “not failed”.
Turning to “YTFIGNSPVPKSYSLSEMRDAFIKFFEKRGHKFLKPYPVVPRWREDVLLVNASIYDFQPHVTSGIVRPPGNPIVMSQPSIRMNDVDLVGITGRHLTSFEMLCHDSFNTKDKTVYWKEETVHYCYDFLTEGLGIDGKLISFKEKPWSGGGNAGNALEVFVRGLEVATLVFMDMKEDPNGPYEIDGIRYSKMDMRIVDTGYGLERLTWLSQGTPTVYQAIYPDIIQHVMKNSSVSDIDEEFLSEVVKASVMKEP”, the protein production entry is given as “failed”.
In the case of “YTISEVVAFTGLTAHTLRWYERIGLMPHIDRSHTGQRRYSNRDLDWLAFVGKLRLTGMPVADMVRYAEMVREGDGTYTQRYEILESTRRDVLARIAELQDTLAVLDHKISFYADAGRALTSERSR”, the protein production entry is “failed”.
For “YTVEPVQDGERSVTLRRAGGTPLVAAMYHLPAAGSPDFVGLDLAATILADTPSGRLYHALVPTKLASGVFGFTMDQLDPGLAMFGAQLQPGMDQDKALQTLTATLESLSSKPFSQEELERARSKWLTAWQQTYADPEKVGVALSEAIASGDWRLFFLQRDRVRDAKLDDVQRAAVAYLVRSNRTEGRYIPTEKPQRAPLAQRADLAAV” the value was “not failed”; for “YYFKEYHLPYPKGVIFSGNIPPCFYHKSDPPLHLLPDKIFLEEVSKLGGIPGKIIKEKQFVEYFVPIIKNDFKLIENYYFQQKQEKFPVKSLICSGKDDKFRVKDLVQWENYFIDKCSISLFKGGHFYIDDNIASLCNQIKDFIY”, “failed”; for “YYLIVSQLLGDTASVKLLVPPGANPHLFSLKPSDAKTLEEADLIVANGLGLEPYLEKYREKTVFVSDFIPALLLIDDNPHIWLDPFFLKYYIVPGLYQVLIEKFPEKQSEIKQKAEEIVSGLDTVIRDSFKALLPYTGKTVVMAHPSFTYFFKEFGLELITLSSGHEHSTSFSTIKEILRKKEQIVALFREPQQPAEILSSLEKELRMKSFVLDPLGVNGEKTIVELLRKNLSVIQEALK”, “not failed”.
